Drawing on PMC6046605, this text covers stoichiometry N and Kd for five substances.

“And” between values parts separate entries of the source, which are not always exact repeats. Equal values may be shown once.

Assay [1] deals with murine norovirus (MNV) RNA-dependent RNA polymerase (RdRp), native (murine norovirus (MNV)). Description: crystal structure; RdRp incubated with VPg at a molar ratio of 1:2 with UTP or GTP, oligo(A) or oligo(C), 2 mM MnCl2, 2 mM MgCl2; P21, six monomers in the asymmetric unit; 3.1 Å.
The target is the same in assay [2]. Description: negative-stain electron microscopy; RdRp alone, 1-6 μM protein, 1 h at room temperature, uranyl formate stain; 2D class averages compared with projections of the hexamer model.
Assay [3] has the same target. Description: cross-linking; 0.001% glutaraldehyde, room temperature 6 min; 50 mM HEPES pH 7.4, 5 mM MgCl2, 5 mM DTT, 1 μM oligo(A)15, 2 μM RdRp, 6 μM VPg; SDS-PAGE and western blot with anti-RdRp or anti-VPg antisera.
For assay [4] the target is unchanged. The experiment in a line: SPR; data not shown; immobilised RdRp; Biacore2000, 1:1 Langmuir kinetics.
Assay [5] addresses murine norovirus (MNV) RdRp D331A mutant (murine norovirus (MNV)). The experiment in a line: not stated; D331A and L354D RdRp by themselves, in the absence of VPg; told only in the discussion.
The target in assay [6] is murine norovirus (MNV) RdRp L354D mutant (murine norovirus (MNV)). The assay is described as above.
Assay [7] concerns the target murine norovirus (MNV) RNA-dependent RNA polymerase (RdRp), native (murine norovirus (MNV)). The experiment in a line: SPR; Biacore2000; RdRp or mutant RdRp immobilised on a CM5 chip (amine coupling, sodium acetate pH 5.0); analyte in 20 mM Tris-HCl pH 8.0, 100 mM NaCl, 5 mM MgCl2; 1:1 Langmuir kinetics.
The target in assay [8] is murine norovirus (MNV) RdRp D331A mutant (murine norovirus (MNV)). Described as above.
Assay [9] has as its target murine norovirus (MNV) RdRp L354D mutant (murine norovirus (MNV)). Described as above.
The target in assay [10] is murine norovirus (MNV) RNA-dependent RNA polymerase (RdRp), native (murine norovirus (MNV)). The assay is described as above. The source holds these as a separate data set.

For “murine norovirus (MNV) RNA-dependent RNA polymerase (RdRp), native (enzyme)”, the stoichiometry N was 6 in [1]; 6 in [2]; 2 and 3 and 6 in assay [3]. The same substance had a dissociation constant Kd in assay [4] of 2.2 nM.
“murine norovirus (MNV) RdRp D331A mutant (enzyme)”: the stoichiometry N in assay [5] was 6.
As to “murine norovirus (MNV) RdRp L354D mutant (enzyme)”, the stoichiometry N in assay [6] amounted to 6.
As to “murine norovirus (MNV) VPg(1-73) (domain or fragment)”, the Kd in assay [4] was 17 nM.
Regarding “murine norovirus (MNV) VPg(1-124), full length (natural protein)”, the Kd in [7] was found to be 8.9 nM; in assay [8], 23 nM; in assay [9], 210 nM; in assay [10], 8.7 nM.
